Measurements published in the supplement of paper PMC9233669.
Variants at the floor of the assay were thinned out.

Assays:
biotinyl-Phe-oxazolone = test: self-aminoacylation, catalytic enhancement (BFO) (fold over background); higher = more active; k-Seq, kA / k0A0; sequences stand for … in GGGAAUGGAUCCACAUCUACGAAUUC…UUCACUGCAGACUUGACGAAGCUG
Summary of the method: (§1)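 The uncatalyzed rate is the low-activity peak of a bimodal Gaussian fit, and catalytic enhancement is median kA divided by it. The kA values came from pseudo-first-order fits, with 1000 bootstraps, of per-sequence fraction reacted measured by streptavidin capture, triplicate qPCR and Illumina sequencing. Mutagenized RNA pools with a 21-nt variable region (0.43 μM) were reacted with each biotinyl-aminoacyl-oxazolone at 2–1250 μM in 50 μL HEPES/NaCl/KCl/MgCl2/CaCl2 buffer with 5% acetonitrile, pH 6.9–7.0, for 90 minutes at room temperature.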

biotinyl-Ile-oxazolone = test: self-aminoacylation, catalytic enhancement (BIO) (fold over background); higher = more active; k-Seq, kA / k0A0; sequences stand for … in GGGAAUGGAUCCACAUCUACGAAUUC…UUCACUGCAGACUUGACGAAGCUG
Summary of the method: as §1

biotinyl-Met-oxazolone = test: self-aminoacylation, catalytic enhancement (BMO) (fold over background); higher = more active; k-Seq, kA / k0A0; sequences stand for … in GGGAAUGGAUCCACAUCUACGAAUUC…UUCACUGCAGACUUGACGAAGCUG
Summary of the method: as §1

biotinyl-Val-oxazolone = test: self-aminoacylation, catalytic enhancement (BVO) (fold over background); higher = more active; k-Seq, kA / k0A0; sequences stand for … in GGGAAUGGAUCCACAUCUACGAAUUC…UUCACUGCAGACUUGACGAAGCUG
Summary of the method: as §1

biotinyl-Leu-oxazolone = test: self-aminoacylation, catalytic enhancement (BLO) (fold over background); higher = more active; k-Seq, kA / k0A0; sequences stand for … in GGGAAUGGAUCCACAUCUACGAAUUC…UUCACUGCAGACUUGACGAAGCUG
Summary of the method: as §1

biotinyl-Trp-oxazolone = test: self-aminoacylation, catalytic enhancement (BWO) (fold over background); higher = more active; k-Seq, kA / k0A0; sequences stand for … in GGGAAUGGAUCCACAUCUACGAAUUC…UUCACUGCAGACUUGACGAAGCUG
Summary of the method: as §1

| Sequence | self-aminoacylation (biotinyl-Phe-oxazolone) | self-aminoacylation (biotinyl-Ile-oxazolone) | self-aminoacylation (biotinyl-Met-oxazolone) | self-aminoacylation (biotinyl-Val-oxazolone) | self-aminoacylation (biotinyl-Leu-oxazolone) | self-aminoacylation (biotinyl-Trp-oxazolone) |
| --- | --- | --- | --- | --- | --- | --- |
| AUUACCCAGGUCAUCUAGUGA [Fam2.1 aminoacylation ribozyme variant] | 59.3 | 4.62 | 10.7 | 5.97 | 9.76 | 12.2 |
| AUUAACCUAGGUCAUCGGGUU [Fam2.2 aminoacylation ribozyme variant] | 40.5 | 5.18 | 9.3 | 4.78 | 12.7 | 6.05 |
| CUACUUCAAACAAUCUUUCUG [Fam1A.1 aminoacylation ribozyme variant] | 5.42 | 0.747 | 0.771 | 0.898 | 0.658 | 2.33 |
| CCACACUGCAUGCAAUCGGUC [Fam1B.1 aminoacylation ribozyme variant] | 0.714 | 0.875 | 0.803 | 0.857 | 0.507 | 0.659 |
| CAGUUUGCCAAUAGUCGCAAG [Fam3.1 aminoacylation ribozyme variant] | 6.08 | 2.08 | 1.83 | 1.82 | 1.91 | 1.34 |
| AUUCACCUAGGGCAUCGGCUG [Fam2.2 aminoacylation ribozyme variant] | 7.35 | 1.75 | 2.03 | 2.01 | 2.42 | 1.64 |
| CCACACCUCAAGCAAUUGGUC [Fam1B.1 aminoacylation ribozyme variant] | 1.05 | 0.937 | 0.699 | 0.754 | 0.873 | 0.738 |
| GUUCGCCUAGGUCAUCGGGUG [Fam2.2 aminoacylation ribozyme variant] | 121 | 9.85 | 18.9 | 10.2 | 22.8 | 14.9 |
| CGACUUCAAACGAUCGGUCUG [Fam1A.1 aminoacylation ribozyme variant] | 1.8 | 1.05 | 1.31 | 1.13 | 1.41 | 2.1 |
| AUUACCCUGGUCAUCGAGAGU [Fam2.1 aminoacylation ribozyme variant] | 1.79 | 0.803 | 0.991 | 1.02 | 0.822 | 0.568 |
| AUUACCUUGGUGAUCGAGUGA [Fam2.1 aminoacylation ribozyme variant] | 19.7 | 2.25 | 4.39 | 2.32 | 4.39 | 5.81 |
| AUUACCCUGGUCAUUGAGGGA [Fam2.1 aminoacylation ribozyme variant] | 1.13 | 1.23 | 1.25 | 1.51 | 1.25 | 2.06 |
| AAGUUUCCUAAGAGUCGCAAG [Fam3.1 aminoacylation ribozyme variant] | 1.17 | 1.29 | 1.04 | 1.31 | 1.24 | 0.936 |
| CUACUUCAAGCAAUCGGUCGG [Fam1A.1 aminoacylation ribozyme variant] | 5.87 | 1.53 | 1.08 | 1.25 | 1.69 | 4.8 |
| AUUCACCUAAGUCAUCCGGUG [Fam2.2 aminoacylation ribozyme variant] | 63.4 | 5.54 | 9.71 | 5.61 | 12.2 | 10.3 |
| CCACACUUAAAGCAAUAGGUC [Fam1B.1 aminoacylation ribozyme variant] | 1.24 | 0.67 | 0.509 | 0.913 | 0.662 | 0.592 |
| AUUACCCUGGUCAUUCAGUGA [Fam2.1 aminoacylation ribozyme variant] | 14.1 | 3.33 | 4.7 | 3.16 | 5.37 | 6.28 |
| AUUCACCUAGAACAUCGGGUG [Fam2.2 aminoacylation ribozyme variant] | 16.8 | 2.39 | 2.73 | 2.47 | 2.88 | 3.56 |
| AUUAACCUAUGUCAUCGGGUG [Fam2.2 aminoacylation ribozyme variant] | 36 | 3.43 | 5.3 | 3.13 | 6.82 | 5.05 |
| AUCACCCUGGUCAUCGAGUGG [Fam2.1 aminoacylation ribozyme variant] | 41.8 | 4.14 | 10.3 | 5.02 | 12.7 | 10.2 |
| CUACUUUAAAUAAUCGGUCUG [Fam1A.1 aminoacylation ribozyme variant] | 1.03 | 0.923 | 0.869 | 0.902 | 0.82 | 0.885 |
| AAGUUUGCUACUAGUCGCAUG [Fam3.1 aminoacylation ribozyme variant] | 1.11 | 0.915 | 0.717 | 1.09 | 0.707 | 0.836 |
| CCACACUUCAAGGAAUCGGUA [Fam1B.1 aminoacylation ribozyme variant] | 0.499 | 1.26 | 1 | 1.18 | 1.23 | 0.902 |
